Source: US20150037348A1 (AbbVie / Abbott, published 2015)
Residue numbers refer to the chain shown, from its start. Names may count otherwise.

T1: recombinant human IL-12 (rhIL-12) (human, UniProt P29459 23-219; P29460 23-328)
T1 construct: disulfide-linked p35/p40 heterodimer (p70); also called IL-12 p70; rec. human IL12
T1 sequence (looked up) 1: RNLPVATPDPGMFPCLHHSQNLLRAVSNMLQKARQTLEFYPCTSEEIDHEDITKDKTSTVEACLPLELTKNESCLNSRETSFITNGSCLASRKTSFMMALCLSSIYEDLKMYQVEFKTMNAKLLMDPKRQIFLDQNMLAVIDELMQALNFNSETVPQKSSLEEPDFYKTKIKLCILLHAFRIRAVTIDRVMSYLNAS
T1 sequence (looked up) 2: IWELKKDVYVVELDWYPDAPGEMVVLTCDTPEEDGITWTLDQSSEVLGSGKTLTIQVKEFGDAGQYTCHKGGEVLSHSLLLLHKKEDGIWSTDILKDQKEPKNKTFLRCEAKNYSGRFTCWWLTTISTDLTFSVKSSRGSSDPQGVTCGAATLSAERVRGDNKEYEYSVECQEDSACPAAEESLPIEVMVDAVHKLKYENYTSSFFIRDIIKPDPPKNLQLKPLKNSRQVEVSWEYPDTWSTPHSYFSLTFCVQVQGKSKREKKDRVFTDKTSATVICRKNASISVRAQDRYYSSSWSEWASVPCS

T2: human IL-12 (human, UniProt P29459 23-219; P29460 23-328)
T2 construct: recombinant human IL-12 heterodimer (p35/p40, disulfide-linked); also called hIL-12; rhIL-12
T2 sequence (looked up) 1: T1 sequence (looked up) 1
T2 sequence (looked up) 2: T1 sequence (looked up) 2

B1: Y61 (scFv, V domains shown)
VH: QVQLVQSGGGVVQPGRSLRLSCAASGFTFSSYGMHWVRQAPGKGLEWVAFIRYDGSNKYYADSVKGRFTISRDNSKNTLYLQMKSLRAEDTAVYYCKTHGSHDNWGQGTMVTVSS
VL: SYVLTQPPSVSGTPGQRVTISCSGGRSNIGSNTVKWYQQLPGTAPKLLIYGNDQRPSGVPDRFSGSKSGTSASLAITGVQAEDEADYYCQSYDRGTHPALLFGTGTKVTVL
notes: also called Y61 scFv; clone Y61; not shown: scFv linker and any tags
B2: Y177 (scFv, V domains shown)
VH: B1 VH
VL: B1 VL with T96S, A99T, L101I
notes: scFv clone
B3: L3.3R3M-H6 (scFv, V domains shown)
VH: B1 VH
VL: B1 VL with T96N, H97W, A99N, L100S, L101N
notes: scFv clone
B4: A4 (scFv, V domains shown)
VH: B1 VH
VL: B1 VL with T96R, H97N, L101T
notes: scFv clone
B5: Y45 (scFv, V domains shown)
VH: B1 VH
VL: B1 VL with H97D, L100I, L101V
notes: scFv clone
B6: G6 (scFv, V domains shown)
VH: B1 VH
VL: B1 VL with A99L, L100T, L101I
notes: scFv clone
B7: Y38 (scFv, V domains shown)
VH: B1 VH
VL: B1 VL with A99S, L100I, L101T
notes: scFv clone
B8: Y174 (scFv, V domains shown)
VH: B1 VH
VL: B1 VL with H97T, L100P, L101E
notes: scFv clone
B9: C6 (scFv, V domains shown)
VH: B1 VH
VL: B1 VL with T96Q, H97T, A99S, L100I, L101T
notes: scFv clone
B10: L3.3R3M-G8 (scFv, V domains shown)
VH: B1 VH
VL: B1 VL with T96S, H97Y, L101R
notes: scFv clone
B11: L3.3R3M-B3 (scFv, V domains shown)
VH: B1 VH
VL: B1 VL with T96F, H97T, P98G, A99S, L100M, L101V
notes: scFv clone
B12: Y139 (scFv, V domains shown)
VH: B1 VH
VL: B1 VL with T96S, L101T
notes: scFv clone
B13: L3.3R3M-H11 (scFv, V domains shown)
VH: B1 VH
VL: B1 VL with T96M, H97I, L101T
notes: scFv clone
B14: A12 (scFv, V domains shown)
VH: B1 VH
VL: B1 VL with H97T, A99R, L100P, L101M
notes: scFv clone
B15: A5 (scFv, V domains shown)
VH: B1 VH
VL: B1 VL with A99S, L100M
notes: scFv clone
B16: L3.3R3M-G7 (scFv, V domains shown)
VH: B1 VH
VL: B1 VL with T96F, H97T, P98G, A99S, L100M, L101V
notes: scFv clone
B17: AO3 (scFv, V domains shown)
VH: B1 VH
VL: B1 VL with A99L, L100T, L101M
notes: scFv clone; only the CDR3s are tied to it
B18: 73-B7 (scFv, V domains shown)
VH: B1 VH with K97T, H102Q
VL: SYVLTQPPSVSGTPGQRVTISCSGGRSNIGSNTVKWYQQLPGTAPKLLIYGNDQRPSGVPDRFSGSKSGTSASLAITGVQAEDEADYYCQSYDSSLRGSRVFGTGTKVTVLG
B19: 78-35 (scFv, V domains shown)
VH: B1 VH with K97T, H99S, H102Y, N104Y
VL: B1 VL with R94S, G95S, T96L, H97T, P98G, A99S, L100R, L101V
notes: scFv
B20: 101-11 IgG1 (antibody, V domains shown)
VH: B1 VH with K97T
VL: B1 VL with T96F, H97T, P98G, A99S, L100R, L101V
notes: IgG1
B21: 170-23 (scFv, V domains shown)
V domain 1: B1 VH with K97T
V domain 2: B1 VL with T96F, H97T, P98G, L100R, L101V, F102W
notes: scFv
B22: 149-9 (scFv, V domains shown)
VH: B1 VH with Q107H
VL: B1 VL with D93E, T96F, H97T, P98G, A99S, L100M, L101V
notes: scFv
B23: 170-25 (scFv, V domains shown)
VH: B1 VH with K97T, H102Q, N104T
VL: B1 VL with R94S, G95S, T96L, H97R, P98G, A99S, L100R, L101V
notes: scFv
B24: 136-24 (scFv, V domains shown)
VH: B1 VH with K97T
VL: B1 VL with R94N, G95A, T96V, H97T, P98A, A99S, L100K, L101V
notes: scFv
B25: 26-1 (scFv, V domains shown)
VH: B1 VH with K97T
VL: B1 VL with R94S, G95S, T96L, H97W, P98G, A99S, L100R, L101V
notes: scFv; also called 26-1 (2, 3)
B26: 136-15 germline (scFv, V domains shown)
VH: B1 VH with Q6E, K84N
VL: QSVLTQPPSVSGAPGQRVTISCSGSRSNIGSNTVKWYQQLPGTAPKLLIYGNDQRPSGVPDRFSGSKSGTSASLAITGLQAEDEADYYCQTYDKGFTGSSVFGTGTKVTVL
B27: 103-8 & 2 (scFv, V domains shown)
VH: B1 VH
VL: B26 VL with Q1S, S2Y, A13T, S25G, L79V
notes: scFv
B28: 70-1 (scFv, V domains shown)
VH: B1 VH with K97T
VL: B1 VL with R94S, G95S, T96L, H97R, P98G, A99S, L100R, L101V
notes: scFv
B29: Y61-L50Y (scFv, V domains shown)
VH: B1 VH
VL: B1 VL with S1Q, Y2S, T13A, G25S, G51Y, V79L

The binders below were run against T1, recombinant human IL-12 (rhIL-12) (assay: BIAcore SPR, IL-12 on chip).

koff | Binder
0.000275 s⁻¹ | B1
0.000661 s⁻¹ | B2
5.69 s⁻¹ | B3
0.00063 s⁻¹ | B4
0.000617 s⁻¹ | B5
0.000508 s⁻¹ | B6
0.000508 s⁻¹ | B7
0.000755 s⁻¹ | B8
0.00107 s⁻¹ | B9
5.55 s⁻¹ | B10
5.51 s⁻¹ | B11
0.000592 s⁻¹ | B12
3.95 s⁻¹ | B13
0.000557 s⁻¹ | B14
0.00045 s⁻¹ | B15
4.24 s⁻¹ | B16
0.000304 s⁻¹ | B17

The binders below were run against T2, human IL-12 (assay: RB assay: 125I-hIL-12 binding to PHA blasts).
Description: (§1) PHA blast cells isolated as described above, were washed once and resuspended in binding buffer to a cell density of 2×10⁷ cells/ml. […] The cell pellet was examined for cell bound radioactivity using a gamma counter. […] Incubations were carried out in duplicate.

IC50 | Binder
7 nM | B18
400 nM | B19
1.6 nM | B20
0.2 nM | B21
0.18 nM | B22
0.05 nM | B23
1 nM | B24

Each binder was assayed against T2, human IL-12 (assay: cell-based or functional assay).

PHA assay IC50 | Binder
60 nM | B25
6 nM | B26
1.5 nM | B27
200 nM | B28

These binders were tested against T1, recombinant human IL-12 (rhIL-12) (assay: cell-based or functional assay).

PHA assay IC50 | IFN gamma IC50 | Binder
0.14 nM |  | B1
1 nM |  | B2
4.3 nM |  | B5
1 nM |  | B6
2.6 nM |  | B7
2 nM |  | B8
10 nM |  | B9
 | 20 pM | B29
0.45 nM |  | B12
0.4 nM |  | B17

What follows are binders tested against T2, human IL-12 (assay: SPR (BIAcore), IL-12 chip).
Text: The system utilizes the optical properties of SPR to detect alterations in protein concentrations within a dextran biosensor matrix. Proteins are covalently bound to the dextran matrix at known concentrations. […] To determine the off rate (koff), on rate (kₒₙ), association rate (Ka) and dissociation rate (Kd) constants, BIAcore kinetic evaluation software (version 2.1) was used.

koff | Binder
0.0074 s⁻¹ | B25
0.0025 s⁻¹ | B18
0.00046 s⁻¹ | B26
0.0499 s⁻¹ | B19
0.00053 s⁻¹ | B27
0.001 s⁻¹ | B21
0.0134 s⁻¹ | B28
0.00354 s⁻¹ | B22
0.0005 s⁻¹ | B23
0.00089 s⁻¹ | B24

Each binder was assayed against T1, recombinant human IL-12 (rhIL-12) (assay: receptor binding assay, 125I-hIL-12 on PHA blasts).
Description: as §1

IC50 | Binder
0.04 nM | B1
0.05 nM | B2
0.25 nM | B4
0.04 nM | B5
0.1 nM | B6
0.055 nM | B7
0.06 nM | B8
0.35 nM | B9
0.02 nM | B29
0.03 nM | B12
0.25 nM | B14
0.066 nM | B15
0.03 nM | B17
